Values quoted from earlier work as cited in article PMC9428257.
“And” between values parts separate entries of the source, which are not always exact repeats. Identical values can stand only once. Like-named read-outs stand apart in the source and are kept apart here.

Experiments:
APRIL (Homo sapiens) [1] = molecular target: APRIL (Homo sapiens) (UniProt O75888)
APRIL (Homo sapiens) [2] = molecular target: APRIL (Homo sapiens) (UniProt O75888); remark: listed apart in the source
BAFF (Homo sapiens) = BAFF (Homo sapiens) (UniProt Q9Y275)

APRIL (Homo sapiens), sequence (O75888 105-250): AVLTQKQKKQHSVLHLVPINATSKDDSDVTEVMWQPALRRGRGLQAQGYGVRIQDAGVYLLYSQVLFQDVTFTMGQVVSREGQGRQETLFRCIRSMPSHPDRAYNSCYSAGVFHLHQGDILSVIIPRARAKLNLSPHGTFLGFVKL
sTACI-Fc ECD, sequence (O14836 1-165): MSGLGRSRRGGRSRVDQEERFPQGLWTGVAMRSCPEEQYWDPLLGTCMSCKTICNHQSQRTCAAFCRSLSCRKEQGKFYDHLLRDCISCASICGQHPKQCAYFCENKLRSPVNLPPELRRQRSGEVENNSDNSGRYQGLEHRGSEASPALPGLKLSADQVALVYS
sBCMA ECD, sequence (Q02223 78-184): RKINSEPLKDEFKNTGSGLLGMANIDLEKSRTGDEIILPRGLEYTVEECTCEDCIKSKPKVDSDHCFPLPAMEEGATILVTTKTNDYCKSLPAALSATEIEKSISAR

Kd (APRIL (Homo sapiens) [1]) | Kd (APRIL (Homo sapiens) [2]) [nM] | Kd (BAFF (Homo sapiens)) [nM] | Substance
0.025 nM and 0.048 nM |  |  | sBCMA ECD (from UniProt Q02223)
 | 6.4 | 0.16 | sTACI-Fc ECD (from UniProt O14836)
